Test results reported in article PMC8022203 (ACS infectious diseases, 2021).

Assays:
[1] = test system: CCN(CC)c1ccc2cc(-c3ccc(/C=N/NC(N)=S)s3)c(=O)oc2c1; assay: purified protein; conditions: pH 8.0; 37.0 °C
[2] = test system: CC(=O)Nc1ccc(/C=N/NC(N)=S)cc1; assay: purified protein; conditions: pH 8.0; 37.0 °C

For EthA (Mycobacterium tuberculosis H37Rv), the Km [1] was 16 ± 2 µM and the Km [2] was 153 ± 11 µM.
